Data published in patent US20250129141A1 (BEIJING WISDOMAB BIOTECHNOLOGY, published 2025).

Target: recombinant protein of C-terminal domain of tetanus toxin heavy chain with C-terminal His tag (TT-Hc-His) (Clostridium tetani, UniProt P04958 865-1315)

Binder	Kd	koff
S22E2-h1-IgG1 (antibody, V domains shown) VH: QVTLKESGPVLVKPTETLTLTCTVSGFSLTDYGVNWIRQPPGKALEWLGMIWSDGTTDYSSALKSRLTISKDTSKSQVVLTMTNMDPVDTATYYCARVDGYSHYYAMDYWGQGTLVTVSS VL: DIQMTQSPSSLSASVGDRVTITCRASENIYSYLAWYQQKQGKAPQLLIYNAKTLAEGVSSRFSGSGSGTQFTLTISSLQPEDFATYYCQHHYGLPFTFGQGTKLEIK	0.573 nM	–
S24B8-h1-IgG1 (antibody, V domains shown) VH: QVQLVQSGAEVKKPGSSVKVSCKASGYTFTSYWIYWVRQAPGQGLEWIGEINPTNGFANYNEKFKTKATITVDKSTSTAYMELSSLRSEDTAVYYCAIHFRFPYWGQGTMVTVSS VL: DIQMTQSPSSLSASVGDRVTITCRASQDIGSSLTWLQQKPGKAPKRLIYATSSLDSGVPSRFSGSGSGTDYTLTISSLQPEDFATYYCLQYASSPYTFGQGTKLEIK	–	< 1e-05 s⁻¹
S24B8-h2-IgG1 (antibody, V domains shown) VH: QVQLVQSGAEVKKPGSSVKVSCKASGYTFTSYWIYWVRQAPGQGLEWIGEINPTAGFANYNEKFKTKATITVDKSTSTAYMELSSLRSEDTAVYYCAIHFRFPYWGQGTMVTVSS VL: DIQMTQSPSSLSASVGDRVTITCRASQDIGSSLTWLQQKPGKAPKRLIYATSSLDSGVPSRFSGSGSGTDYTLTISSLQPEDFATYYCLQYASSPYTFGQGTKLEIK	0.385 nM	–
S24B8-h3-IgG1 (antibody, V domains shown) VH: QVQLVQSGAEVKKPGSSVKVSCKASGYTFTSYWIYWVRQAPGQGLEWIGEINPTNAFANYNEKFKTKATITVDKSTSTAYMELSSLRSEDTAVYYCAIHFRFPYWGQGTMVTVSS VL: DIQMTQSPSSLSASVGDRVTITCRASQDIGSSLTWLQQKPGKAPKRLIYATSSLDSGVPSRFSGSGSGTDYTLTISSLQPEDFATYYCLQYASSPYTFGQGTKLEIK	0.164 nM	–
